Reference: patent US20160145343A1 (UNIVERSITY OF PITTSBURGH OF THE COMMONWEALTH SYSTEM OF …, published 2016)
Where no end group is shown, it is not given here. The star is where a group is joined. αGalNAc = CC(=O)N[C@@H]1[C@@H](O)[C@@H](O)[C@@H](CO)O[C@@H]1*; Galβ1‑3GalNAc = TF-antigen

How the values were obtained:
[1] = molecular target: T1, SEQ ID NO: 346 glycopeptide with TF-antigen at Thr4; assay: ELISA on coated glycopeptide, antibody 0.01 mg/ml, mean of 3
T1 construct: also called T4^TF
T1 peptide: HGVT(Galβ1‑3GalNAc)SAPDTRPAPGSTAPP
Description: (§1) Selected antibodies from Table 1 were further characterized for binding to synthetic MUC1 glycopeptides that were synthesized with the GalNac or GaNac-Gal carbohydrates on various serines and threonines along the MUC1 tandem repeat. If placed within the specific epitope recognized by an antibody, the antibody would not bind that particular glycopeptide.

[2] = molecular target: T2, SEQ ID NO: 346 glycopeptide with Tn-antigen at Thr4, Thr9 and Thr16; assay: as above
T2 construct: also called T4^Tn/T9^Tn/T16^Tn
T2 peptide: HGVT(αGalNAc)SAPDT(αGalNAc)RPAPGST(αGalNAc)APP
Description: as §1

[3] = molecular target: T3, SEQ ID NO: 346 glycopeptide with TF-antigen at Thr4 and Thr9; assay: as above
T3 construct: also called T4^TF/T9^TF
T3 peptide: HGVT(Galβ1‑3GalNAc)SAPDT(Galβ1‑3GalNAc)RPAPGSTAPP
Description: as §1

[4] = molecular target: T4, SEQ ID NO: 346 glycopeptide with TF-antigen at Thr9; assay: as above
T4 construct: also called T9^TF
T4 peptide: HGVTSAPDT(Galβ1‑3GalNAc)RPAPGSTAPP
Description: as §1

[5] = molecular target: T5, SEQ ID NO: 346 glycopeptide with TF-antigen at Thr16; assay: as above
T5 construct: also called T16^TF
T5 peptide: HGVTSAPDTRPAPGST(Galβ1‑3GalNAc)APP
Description: as §1

[6] = molecular target: T6, SEQ ID NO: 346 glycopeptide with TF-antigen at Ser5 (not fully specified (residue 5)); assay: as above
T6 construct: also called S5^TF
T6 peptide: HGVTSAPDTRPAPGSTAPP
Description: as §1

[7] = molecular target: T7, Synthetic peptide (GVTSAPDTRPAPGSTAPPAH)2; assay: ELISA on coated peptide, antibody 0.01 mg/ml, mean of 3
T7 peptide: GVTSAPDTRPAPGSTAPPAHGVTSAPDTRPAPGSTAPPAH
Description: as §1

[8] = molecular target: T8, Synthetic peptide HGVTSAPDTRPAPGSTAPP; assay: as above
T8 construct: Unglycosylated; also called 346; MUC1 repeat
T8 peptide: HGVTSAPDTRPAPGSTAPP
Description: as §1

[9] = molecular target: T9, 100 aa-long synthetic MUC1 peptide (…)5; assay: ELISA titration on coated 100-mer peptide, EC50 approximated
T9 construct: also called 100-mer; vaccine 100-mer peptide
Description: Heavy and light chains of antibodies reactive against MUC1 were generated from plasma of individuals vaccinated with a 100 aa-long synthetic MUC1 peptide (100-mer) representing the unglycosylated tumor associated MUC1 antigen (Kimura et al., 2013, Cancer Prev. Res. (Phila.), 6:18-26). Binding of monoclonal antibodies produced by combinatorial pairing of chains was characterized by ELISA using the vaccine 100-mer peptide consisting of the following sequence ([…])₅ (SEQ ID NO: 2). Briefly, 96-well high-binding ELISA plates were coated with 50 μl of the peptide diluted in carbonate buffer at 2 μg/ml. The wells were washed then blocked with 5% fat-free milk in phosphate-buffered saline (PBS). Antibodies were diluted in 5% milk in PBS with 0.1% TWEEN 20 (PBS-T) and then added to the peptide-coated, blocked wells and incubated at 37° C. for 2 hours, after which the wells were washed. Binding of antibody was probed with an anti-human IgG goat antibody conjugated to horseradish peroxidase (HRP), and signal was detected with 3,3′,5,5′-tetramethylbenzidine (TMB) substrate, which was neutralized with an acid, then the 450 nm absorbance was read. […] Additionally, the EC₅₀ of each antibody was approximated by ELISA titration (Table 1).

B1: M7 (antibody, human IgG1, kappa, V domains shown)
VH: EVQLVESGGGLVQPGGSLRLSCAASGFTVSSNYMSWVRQAPGKGLEWVSVIYSGGSTYYADSVKGRFTISRDNSKNTLYLQMNSLRAEDTAVYYCARGSTNTYYYDSSGHPWGQGTMVTVSS
VL: DIVMTQSPLSLPATPGEPASISCRSSQSLLHSNGYTYLDWYLQKPGQSPQVLIYLASNRASGVPDRFSGSGSGTNFTLKISRVEAEDVGLFYCMQALQTPQTFGQGTKLEIKR
notes: Human IgG
[1]
  ELISA absorbance at 450 nm: 0.1 absorbance
[2]
  ELISA absorbance at 450 nm: 0.1 absorbance
[3]
  ELISA absorbance at 450 nm: 0.1 absorbance
[4]
  ELISA absorbance at 450 nm: 0.1 absorbance
[5]
  ELISA absorbance at 450 nm: 0.1 absorbance
[6]
  ELISA absorbance at 450 nm: 0.1 absorbance
[7]
  ELISA absorbance at 450 nm: 3.5 absorbance
[8]
  ELISA absorbance at 450 nm: 0.1 absorbance
[9]
  EC50: 0.011 µg/mL
